This assay addresses ATP synthase subunit α (Euglena gracilis). The assay is described as follows: cryo-EM structure; native ATP synthase dimer with bound IF1, co-purified as one complex from E. gracilis mitochondria; 25 mM HEPES/KOH pH 7.5, 25 mM KCl, 15 mM MgOAc2, 2 mM DTT, 0.05% β-DDM; maps: membrane region 2.82 Å, F1/c-ring rotational states 1-3 3.04, 3.14 and 3.92 Å, rotor 3.3 Å, peripheral stalk tip 3.82 Å, consensus dimer 4.32 Å.

“ATPase inhibitory factor 1 (IF1) (natural protein)”: the percent of particles of rotational state 3 that contain IF1 was found to be 34%.

Values taken from article PMC6930080.
